# From the DeepSol protein solubility set
# Experiment: soluble on expression in E. coli; label from the status in PepcDB or PDB records
row,Sequence,soluble on expression in E. coli
1,MGNTATEFDGPYVITPISGQSTAYWICDNRLKTTSIEKLQVNRPEHCGDLPETKLSSEIKQIMPDTYLGIKKVVALSDVHGQYDVLLTLLKKQKIIDSDGNWAFGEGHMVMTGDIFDRGHQVNEVLWFMYQLDQQARDAGGMVHLLMGNHEQMVLGGDLRYVHQRYDIATTLINRPYNKLYSADTEIGQWLRSKNTIIKINDVLYMHGGISSEWISRELTLDKANALYRANVDASKKSLKADDLLNFLFFGNGPTWYRGYFSETFTEAELDTILQHFNVNHIVVGHTSQERVLGLFHNKVIAVDSSIKVGKSGELLLLENNRLIRGLYDGTRETLQENSLNQ,soluble
2,MGPLCAVCESPTAFTLHFGGRCCKACAAFFRRTIALDLKYECAADDPCEIHFKFPGMRLVCRECRLRKCYSAGMRSELVRSKRENFACTRRKDSRNNSDAAPNSNSPSTRQSSSPEEMDDWSFQMFEEKPKIEDLPLTPSISHPPLPTQLMPEESSRTSSFDGGYCSSYPSSSAATHPSPPGMLYSIENNSILQYYHSMETGLCSKRRIMYTNTGMDFILDTHANLQCPFTVNDLRPHDYRNFRGMLRHDFVMLFDYATRFPEFNSFTSHEKNMFYRQIVAVDFILSSAYYTAKLGQAHRQMVLTNGEYLNMDPLPMSGNEIDARRYFDCDEDFSKYRALMPMHIAIWEESIVPFSKLNVTFEEFCLLKALTVWQATYFKLTENGREKCRRQRNIIIGFLSKMCHSPGGGGEHRVGELLMSMNYLRESAQKLTTSYVMLTVFNVLNCDSMLHEMLNFQY,not soluble
3,MGPMPKLADRKLCADQECSHPISMAVALQDYMAPDCRFLTIHRGQVVYVFSKLKGRGRLFWGGSVQGDYYGDLAARLGYFPSSIVREDQTLKPGKVDVKTDKWDFYCQ,soluble
4,MGQAPDRPHLETFLARLRAGAKILELGCGGGQDSEYMLSAGFDVHPTDGTPDIAKAAQARLGIPVRTLLFENIEDAALYDAVWANACLLHVPRLALPGIIGRIHTALKPGGVFYASFKAGEVEGRDTFGRYYNYPSKAWLEETYGQFAWTEVEIEARQGSGYDKLPTDWLHVTATKALEHHHHHH,not soluble
5,MGQLPPRARAFFAAQRPLRVLMPGCGSAADLPPLLAMGHDVLAVDFSEAAIELAARQWPEAAGRLLLADFFQLQMPAFDCLFERAFLCALPVGMRSQYAERVAALIAPGGALAGVFFVADTERGPPFGMQAEALRELLSPWFELEEDLALDESVAVFRNRERWMVWRRRGLEHHHHHH,not soluble
6,MGQMFNPPHPGETLREDVLPAFNLTVTEAANQLGVSRVTLSRVLNGTSAISPEMALRIEEWLGVENGGRADLWLGMQTSYDLWKARERVHQQPLSVRSVKHKSTEMALR,not soluble
7,MGQRSTPQQIPVVVLAGFLGSGKTTLLNHLLHRSGGSRIGAVVNDFGSIEIDAMAVAGALGDSTVSLGNGCLCCAVDASELDGYLARLARPEAGIDVIVIEASGLAEPQELVRMLLASEQPGIVYGGLVEVVDAAEFDDTRARHPEIDRHLALADLVVVNKTDRATDAERVLGLVHSLVGGAAVVPATYGRIDPEFLYDCRPGEERVGQLSFDDLHDHSEGGAHADHLHAAYDTLSFVSGLPLDPRRLMRFLDSRPKGLYRIKGYVDFGPYDTRNRYAVHAVGRFLRFYPEPWTPAGAAGGSGAPETGRTQLVLIGSGIDAAALGEELDACRRDADAPPADEHGMWGVLRYVADGEEPPDSPLEHHHHHH,not soluble
8,MGRNDSEFPSDEELKKLAGKIKGAAIRANTKILKSYDPDTYGNYLDQLDGIRSQAEWLGTAFDDFLKPSPWDFDDMLKALDEIASDLGQAVGETEIKNGIVQGRIDTTKQFLGEGGWKGALADSFKMDYLEPIGSHIAANQGAVTLVTHDGLQAMRDIYGKARENLKDLGEKAVTAFEQADGISASDLKTLLTVLSAAFGLGTAVLSAFAPAAAAGAGIASALVSGGIAVGSDKVGEDEESELAADYPDKVEENFKNALEKLKEQITTMEDELIKVLQKGTSDIASIVWGEKLDRLNGFSALFGMGNQSLLAPKVPDLSMVAFGDDPGKLKDGLVQVSG,not soluble
9,MGRRRGFLTMRIPRIYHPEPLTSHSHIALCEDAANHIGRVLRMGPGQALQLFDGSNQVFDAEITSASKKSVEVKVLEGQIDDRESPLHIHLGQVMSRGEKMEFTIQKSIELGVSLITPLFSERCGVKLDSERLNKKLQQWQKIAIAACEQCGRNRVPEIRPAMDLEAWCAEQDEGLKLNLHPRASNSINTLPLPVERVRLLIGPEGGLSADEIAMTARYQFTDILLGPRVLRTETTALTAITALQVRFGDLGLEHHHHHH,not soluble
10,MGRSATPEGDPARTMELLWGGGSTPISRPRNGKPGLTLDRIVETAVSVADAEGLDAVSMRRLASELGAGAMSLYTHVPGKTELVEVMLDRALSTLEPADDADEGWRERLAAAAHDYFHLLCAHPWMLGVVALSRPVLGPGGMAKYERELRAVEGLGLSDLDMDSVVTLLDSFVAGAARAAVDAAALAAQGEADSEWWQRVAPHFEKVFDPDRFPLAARVGASAGEHHDAAYVPAHAFEFGLTRLLDGVGALIVDGGTGGE,not soluble
11,MGRVLDRIEVVAEEIRGQAVQSEADCRLTDAAAGLLRDSGAIRLLQPRLYGGYEVHPREFAETVMGVAALDGASGWVTGIVGVHPWELAFADPQVQEEIWGEDNDTWMASPYAPMGVATPVDGGYVLKGRWSFSSGTDHCQWAFLGAMVGDGEGGIATPSSLHVILPRTDYQIVEDTWDVIGLRGTGSKDLIVDGAFVPGYRTLNAAKVMDGRAQKEAGRPEPLFNMPYSCMFPLGITAAVIGITEGALACHIAVQKDRVAITGQKIKEDPYVLSAIGESAAEINASRVSLIETADRFYDKVDAGKEITFEERAIGRRTQIAAAWRAVRAADEIFARAGGGALHYKTPMQRFWRDAHAGLAHAVHVPGPTNHASALTQLGGEPQGMMRAMI,soluble
12,MGRVYYGGVERTYLYRGRILNLALEGRYEIVEHKPAVAVIALREGRMLFVRQMRPAVGLAPLEIPAGLIEPGEDPLEAARRQLAEETGLSGDLTYLFSYFVSPGFTDEKTHVFLAENLKEVEAHPDEDEAIEVVWMRPEEALERHQRGEVEFSATGLVGVLYYHAFLRGR,soluble
13,MGSDKIHHHHHHAAGLVVNDNDLRNDLAWLSDRGVIHLSLSTWPLSQEEIARALKKAKPSYSSEQVVLARINQRLSALKADFRVTGYTSTDQPGTPQGFGQTQPADSSLGLAFNNSGEWWDVHLQGNVEGGERISNGSRFNANGAYGAVKFWNQWLSFGQIPQWWGPGYEGSLIRGDAMRPMTGFLMQRAEQAAPETWWLRWVGPWQYQISASQMNQYTAVPHAKIIGGRFTFSPFQSLELGASRIMQWGGEGRPESFSSFWDGFTGHDNTGTDNEPGNQLAGFDFKFKLEPTLGWPVSFYGQMVGEDESGYLPSANMFLGGVEGHHGWGKDAVNWYVEAHDTRTNMSRTNYSYTHHIYKDGYYQQGYPLGDAMGGDGQLIAGKVELITEDNQRWSTRLVYAKVNPENQSINKAFPHADTLKGVQLGWSGDVYQSVRLNTSLWYTNANNSDSDDVGASAGIEIPFSL,not soluble
14,MGSDKIHHHHHHAAGSSSSSGSSSPSATLTPKDSQATTVFTTTNPSLTLSKVPNIDFGSNATPNGSTDLSVQAAKVDSDLEVANDGIASGWNVQVMNSAFTDSATNNSLYGAKLSFAAAGVAPANADNASPKPAMSAVSLSGDGQNQLVLSAPVKGGLGIWDTEYALSDFKLSVPAGQLPGSYVSNLTWQLSNAPQ,not soluble
15,MGSDKIHHHHHHAASITLPSGYTKNAVIKWNQTGKASKALINASKKGMMENTNSDAGSDNTLVNVTKLTNSQKVELSKYTLSLINSARSQLGKKPWTYRSGALRFADRVANQYYTHNKSCWDPDHYVAGILRAAKASGLNSNAGQVYEDEAGLPISSQYGSNLRTMSVLKNQIYFNVKQMLFGGFAGSDSQMNDSSRYTEWEHAGDLLGCRTKNYDAKTKYFGVSFSGLKDDQSKISVHMIGVAKRYIQNYKKFNH,not soluble
